Patent US8901081B2, “Uses of GRS proteins or fragments thereof” (SNU R&DB Foundation, priority 2008, dated 2014)

What was measured:
Type in all cases: cell-based
[1] = system: MAPKs (ERK, p38 MAPK, Jun N-terminal kinase) in HeLa cells; test: Effect on MAPKs (immunoblotting of total and phosphorylated MAPKs)
Protocol: HeLa cells were cultured on a 6-well plate for 12 hours. After washing 2 times, the cells were allowed to stand in serum-starved DMEM for 3 hours. Then, the cells were cultured with GRS protein (150 nM) or TNF-α (15 ng/mL) for 10, 30, 60, 90 or 120 minutes, and then washed 2 times with cold phosphate buffer. The protein was extracted with 25 mM Tris-HCl (pH 7.4) lysis buffer containing 150 mM NaCl, 1 mM EDTA, 1 mM sodium orthovanadate, 20 mM sodium fluoride, 12 mM β-glycerophosphate, 10% glycerol, 1% Triton X-100 and protease inhibitor, separated by loading on 10% SDS-PAGE, and then transferred to polyvinylidene difluoride (PVDF) membrane (Millipore). Then, immunoblotting was performed using antibodies specific total MAPKs and phosphorylated MAPKs.

[2] = system: HeLa cells and RAW 264.7 cells; test: Cell viability with GST-GRS fragments (MTT assay); conditions: GST-GRS fragments added to HeLa and RAW 264.7 cells; FIG. 15
Protocol: In order to investigate the domain of the GRS protein related to cytokine activity, four GRS fragments of SEQ ID NOs. 3 to 6 (FIGS. 13 and 14) were prepared and they were expressed with the GST fusion protein. […] Then, cell viability was examined.

[3] = system: HeLa and HCT+/− cancer cells, normal 293 cells and macrophage RAW cells; test: Attachment of biotinylated GRS protein to cells (Western blotting with streptavidin-HRP); conditions: 0, 1, 2, 5 or 10 μg biotinylated GRS protein; FIG. 4
Protocol: HeLa and HCT+/− cancer cells, normal 293 cells and macrophage RAW cells were placed on a 35-mm dish, cultured for 18 hours, and then washed with serum-starved medium (1 mL). Then, after adding 0, 1, 2, 5 or 10 μg of biotinylated GRS protein, proteins were collected from the whole cell lysate in the same manner as in Example 1. Then, Western blotting was performed using streptavidin-HRP and anti-tubulin antibodies.

[4] = system: HeLa, A549, HCT+/− and H460 cancer cells; test: Anticancer activity by MTT assay, cancer cells; conditions: His-GRS protein 50, 100 or 150 nM, 24 hours, FIG. 6
Protocol: (§1) HeLa, A549, HCT+/− and H460 cancer cells, H293 kidney cells, SH-SY5Y neural cells, human skin fibroblast HSF cells, and macrophage RAW cells were placed on a 96-well plate, cultured for 18 hours, washed with serum-starved medium, treated with His-GRS protein (0, 50, 100 or 150 nM), heated His-GRS protein (150 nM) or 2 μg/mL Adriamycin in serum-starved medium (100 μL), cultured for 24 hours, treated with 5 mg/mL MTT (10 μL per each well), and then cultured for 2 hours. After decanting the supernatant using a syringe and treating with DMSO (100 μL per each well), the cells were cultured for 10 minutes and absorbance was measured at 570 nm using an ELISA reader.

[5] = system: HeLa, A549, HCT+/− and HCT+/+ cancer cells; test: Anticancer activity by FACS (sub-G1 dead cells), cancer cells; conditions: GRS protein 100 nM, FIG. 5
Protocol: (§2) HeLa, A549, HCT+/− and HCT+/+ cancer cells, BV2 and SH-SY5Y neural cells, human skin fibroblast HSF cells, and macrophage RAW cells were placed on a 35-mm dish, and cultured for 18 hours. The cell culture was washed with serum-starved medium (1 mL), treated with GRS protein (0 or 100 nM), heated GRS protein (100 nM) or 1 μg/mL Adriamycin, and further treated with trypsin EDTA. The cells were isolated and centrifuged at a rate of 500 g for 10 minutes. After decanting the supernatant, the cells were resuspended in cold PBS (0.3 mL). After adding cold 100% EtOH (0.7 mL) and mixing for 5 seconds, the mixture was incubated at −20° C. overnight. The cell culture was centrifuged at a rate of 500 g at 4° C. for 10 minutes. After decanting the supernatant, adding cold PBS (1 mL) and mixing for 5 seconds, the mixture was centrifuged again at a rate of 500 g at 4° C. for 10 minutes. After decanting the supernatant, the cells were resuspended in P.I solution (500 μL) and incubated at room temperature for 20 minutes. Then, the number of dead cells was counted by FACS by measuring the quantity of DNA fragments resulting from apoptosis. The result is shown in FIG. 5 (The cells in sub-G1 phases were considered as dead cells).

[6] = system: H293 kidney cells, SH-SY5Y neural cells, macrophage RAW cells; test: Anticancer activity by MTT assay, kidney, neural and immune cells; conditions: His-GRS protein 50, 100 or 150 nM, 24 hours; FIG. 6
Protocol: as §1

[7] = system: Bax, Bcl-2 and cytochrome C in HeLa cells; test: Intracellular level of Bax, Bcl-2 and cytochrome C (Western blotting); conditions: 150 nM GRS
Protocol: Also, in order to investigate whether the GRS-induced apoptosis is related with mitochondria, the intracellular level of Bax, Bcl-2 and cytochrome C was examined. First, HeLa cells were cultured with 150 nM GRS for a predetermined time. The cells were then collected, resuspended in 20 mM HEPES (pH 7.5) storage buffer containing 10 mM KCl, 1.5 mM MgCl2, 0.5 mM EDTA, 1 mM DTT and protease inhibitor (Calbiochem), allowed to stand on ice for 5 minutes, and then homogenized for 6 cycles. Then, after centrifuging at 10,000 g for 10 minutes, protein was separated from the supernatant using 12% SDS-PAGE and transferred to PVDF membrane. Then, Western blotting was performed using cytochrome C or anti-tubulin antibody. […] To be concluded, GRS has pro-apoptotic activity in the HeLa cells.

[8] = system: caspase 3 in HCT+/− cancer cells; test: Caspase 3 assay (Western blotting); conditions: His-GRS protein 50, 100 or 150 nM, 24 hours, FIG. 7
Protocol: HCT+/− cancer cells or macrophage RAW cells were placed on a 35-mm dish. 18 hours later, after washing with serum-starved medium, the cells were treated with His-GRS protein (0, 50 nM, 100 nM or 150 nM) or heated His-GRS protein (150 nM) in serum-starved medium (1 mL). After culturing for 24 hours, the cells were collected using a lifter. The cells were centrifuged at 3000 rpm for 5 minutes and, after decanting the supernatant, adding lysis buffer (200 μL) containing 0.5% Triton X-100, 2 mM EDTA, 10% glycerol, 150 mM NaCl, 25 mM Tris-HCl (pH 7.4) and protease inhibitor, and mixing at 4° C. for 30 minutes, the mixture was centrifuged at a rate of 12,000 rpm at 4° C. for 15 minutes and the protein was quantitated by the Bradford method. The collected protein was separated by loading on 15% SDS-PAGE and Western blotting was carried out using anti-caspase 3 and anti-tubulin antibodies.

[9] = system: BV2 and SH-SY5Y neural cells, macrophage RAW cells; test: Anticancer activity by FACS (sub-G1 dead cells), neural and immune cells; conditions: GRS protein 100 nM; FIG. 5
Protocol: as §2

[10] = system: p38 kinase in HCT+/− cancer cells; test: Apoptosis mechanism: p38/ERK Western blotting; conditions: 100 nM GRS protein, 0-120 minutes; FIG. 8
Protocol: HCT+/− cancer cells were placed on a […]. 18 hours later, after washing with serum-starved medium, the cells were treated with 100 nM GRS protein or 2 μg/mL lipopolysaccharide (LPS) in serum-starved medium (1 mL). After culturing for 0, 10, 30, 60, 90 or 120 minutes, the cells were collected using a lifter. The cells were centrifuged at 3,000 rpm for 5 minutes and, after decanting the supernatant, adding lysis buffer (200 μL) containing 0.5% Triton X-100, 2 mM EDTA, 10% glycerol, 150 mM NaCl, 25 mM Tris-HCl (pH 7.4) and protease inhibitor, and mixing at 4° C. for 30 minutes, the mixture was centrifuged at a rate of 12,000 rpm at 4° C. for 15 minutes and the protein was quantitated by the Bradford method. The collected protein was separated by loading on 10% SDS-PAGE and Western blotting was carried out using anti-p-p38, anti-p38, anti-p-ERK, anti-ERK and anti-tubulin antibodies.

[11] = GRS protein 150 nM, 10-120 minutes, FIG. 9

Molecule: TNF-α [reference compound]
- phosphorylation of all the MAPKs ([1]; TNF-α 15 ng/mL, FIG. 10): increased in 30 minutes

B1: F4: 511st through 685th amino acids of the full-length GRS, including the C-terminal anticodon-binding domain (protein, listed as Homo sapiens)
chain: LYVEEVVPNVIEPSFGLGRIMYTVFEHTFHVREGDEQRTFFSFPAVVAPFKCSVLPLSQNQEFMPFVKELSEALTRHGVSHKVDDSSGSIGRRYARTDEIGVAFGVTIDFDTVNKTPHTATLRDRDSMRQIRAEISELPSIVQDLANGNITWADVEARYPLFEGQETGKKETIEE
modifications: DOMAIN (1)..(175) Fragment 4 (511-685aa)
- pro-apoptotic cytokine activity (cell viability) [2]: exhibited pro-apoptotic cytokine activity

B2: GRS protein: glycyl-tRNA synthetase (GRS) protein, amino acid sequence of SEQ ID NO. 1 (protein, listed as Homo sapiens)
chain: MDGAGAEEVLAPLRLAVRQQGDLVRKLKEDKAPQVDVDKAVAELKARKRVLEAKELALQPKDDIVDRAKMEDTLKRRFFYDQAFAIYGGVSGLYDFGPVGCALKNNIIQTWRQHFIQEEQILEIDCTMLTPEPVLKTSGHVDKFADFMVKDVKNGECFRADHLLKAHLQKLMSDKKCSVEKKSEMESVLAQLDNYGQQELADLFVNYNVKSPITGNDLSPPVSFNLMFKTFIGPGGNMPGYLRPETAQGIFLNFKRLLEFNQGKLPFAAAQIGNSFRNEISPRSGLIRVREFTMAEIEHFVDPSEKDHPKFQNVADLHLYLYSAKAQVSGQSARKMRLGDAVEQGVINNTVLGYFIGRIYLYLTKVGISPDKLRFRQHMENEMAHYACDCWDAESKTSYGWIEIVGCADRSCYDLSCHARATKVPLVAEKPLKEPKTVNVVQFEPSKGAIGKAYKKDAKLVMEYLAICDECYITEIEMLLNEKGEFTIETEGKTFQLTKDMINVKRFQKTLYVEEVVPNVIEPSFGLGRIMYTVFEHTFHVREGDEQRTFFSFPAVVAPFKCSVLPLSQNQEFMPFVKELSEALTRHGVSHKVDDSSGSIGRRYARTDEIGVAFGVTIDFDTVNKTPHTATLRDRDSMRQIRAEISELPSIVQDLANGNITWADVEARYPLFEGQETGKKETIEE
modifications: His tag; PEPTIDE (1)..(685) full length of GRS
- attachment of GRS protein to the surface of cells [3]: attached to the surface of other cells
- level of phosphorylated ERK [1, 11]: increased with time
- level of phosphorylated p38 MAPK [1, 11]: increased with time
- killing of cancer cells (cell viability by MTT assay) [4]: specifically killed
- killing of cancer cells (dead cells in sub-G1 counted by FACS) [5]: specifically killed
- effect on kidney, neural and immune cells (cell viability by MTT assay) [6]: little effect
- intracellular level of Bax ([7]; FIG. 11): did not affect
- intracellular level of Bcl-2 ([7]; FIG. 11): reduction
- secretion of cytochrome C ([7]; FIG. 12): increased
- caspase 3 in active form [8]: caspase 3 in active form was observed
- effect on neural and immune cells (dead cells in sub-G1 counted by FACS) [9]: little effect
- effect on p38 kinase-related mechanism [10]: had an effect on the p38 kinase-related mechanism
